The text below walks through data of patent publication US20250326843A1 (published 2025).

Test [1] concerns the target CD3 on human T cells (human, UniProt P07766 23-207). Briefly: flow cytometry; T cells. Background: In flow cytometry, cells or beads pass a laser one at a time.
Test [2] concerns the target T1, murine B7-H4 (murine, UniProt Q7TSP5 25-257).
T1 chain: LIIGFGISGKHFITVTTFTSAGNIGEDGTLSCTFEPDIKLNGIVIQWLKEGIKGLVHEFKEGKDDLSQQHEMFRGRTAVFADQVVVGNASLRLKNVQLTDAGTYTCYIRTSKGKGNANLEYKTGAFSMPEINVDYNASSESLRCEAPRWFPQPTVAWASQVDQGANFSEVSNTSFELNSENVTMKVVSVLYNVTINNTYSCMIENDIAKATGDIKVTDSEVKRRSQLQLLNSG
Briefly: flow cytometry; CHO-K1/m B7H4 cells.

Test [3] has as its target T2, human B7-H4 (human, UniProt Q7Z7D3 25-282).
T2 chain: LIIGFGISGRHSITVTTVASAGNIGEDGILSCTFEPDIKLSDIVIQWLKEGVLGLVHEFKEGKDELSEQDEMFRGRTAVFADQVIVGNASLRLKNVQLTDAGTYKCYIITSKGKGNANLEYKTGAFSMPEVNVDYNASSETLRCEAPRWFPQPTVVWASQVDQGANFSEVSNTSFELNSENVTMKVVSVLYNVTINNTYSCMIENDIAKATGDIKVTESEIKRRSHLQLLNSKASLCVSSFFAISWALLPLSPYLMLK
As to the kind of experiment: flow cytometry; CHO-K1/hu B7H4 cells.

For test [4], the target named is T3, cynomolgus monkey B7-H4 (cynomolgus monkey, UniProt A0A2K5U6P5 25-282).
T3 chain: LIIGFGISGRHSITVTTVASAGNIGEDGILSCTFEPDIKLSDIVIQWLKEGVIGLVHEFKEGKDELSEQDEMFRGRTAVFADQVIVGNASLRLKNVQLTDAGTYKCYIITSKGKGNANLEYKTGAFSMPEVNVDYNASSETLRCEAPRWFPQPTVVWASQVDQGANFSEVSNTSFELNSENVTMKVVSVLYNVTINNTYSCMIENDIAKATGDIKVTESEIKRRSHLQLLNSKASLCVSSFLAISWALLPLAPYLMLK
As to the kind of experiment: flow cytometry; CHO-K1/cyno B7H4 cells.

For test [5], the target named is human 4-1BB (human, UniProt Q07011 24-255). Briefly: flow cytometry.
Chain of human 4-1BB (Q07011 24-255): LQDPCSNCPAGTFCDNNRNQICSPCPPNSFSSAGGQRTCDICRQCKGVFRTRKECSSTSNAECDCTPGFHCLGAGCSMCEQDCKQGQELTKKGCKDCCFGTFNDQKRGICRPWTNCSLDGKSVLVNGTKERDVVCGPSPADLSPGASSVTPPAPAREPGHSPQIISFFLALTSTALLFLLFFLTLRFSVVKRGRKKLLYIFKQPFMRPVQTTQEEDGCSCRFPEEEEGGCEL

Chain of CD3 on human T cells (P07766 23-207): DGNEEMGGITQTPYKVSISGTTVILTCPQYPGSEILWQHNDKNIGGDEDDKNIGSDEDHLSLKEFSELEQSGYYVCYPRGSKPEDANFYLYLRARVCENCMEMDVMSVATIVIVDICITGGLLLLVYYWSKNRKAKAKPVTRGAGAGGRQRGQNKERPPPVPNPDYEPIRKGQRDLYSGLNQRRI

B1: B7-H4×CD3 bispecific antibody PR003733 (bispecific antibody)
light: QAVVTQEPSLTVSPGGTVTLTCRSSTGAVTTSNYANWVQQKPGQAPRGLIGGTNKRAPWTPARFSGSLLGDKAALTLLGAQPEDEAEYFCALWYSNLWVFGGGTKLTVLGQPKAAPSVTLFPPSSEELQANKATLVCLISDFYPGAVTVAWKADSSPVKAGVETTTPSKQSNNKYAASSYLSLTPEQWKSHRSYSCQVTHEGSTVEKTVAPTECS
heavy: not shown
chain: EIVMTQSPASLSVSPGERATLSCRASQSVSSNLAWYQQKPGQAPRLLIYGASTRATGIPARVSGGGSGTEFTLTISSLQSEDFAVYYCQQYKNWPFTFGPGTKLEIKGGGGSGGGGSGGGGSGGGGSQVQLVQSGAEVKKPGSSMRVSCKASEDTFSSYAISWVRQAPGQGLEWMGGTAPIFGTTNYAQKFQGRVTITADKSTSTAYMELSSLRSEDTAVYYCARGGPYFDYWGQGTLVTVSSASEPKSSDKTHTCPPCPAPEAAGGPSVFLFPPKPKDTLMISRTPEVTCVVVDVSHEDPEVKFNWYVDGVEVHNAKTKPREEQYNSTYRVVSVLTVLHQDWLNGKEYKCKVSNKALPAPIEKTISKAKGQPREPQVCTLPPSREEMTKNQVSLSCAVKGFYPSDIAVEWESNGQPENNYKTTPPVLDSDGSFFLVSKLTVDKSRWQQGNVFSCSVMHEALHNHYTQKSLSLSPGK
The term EC50 denotes the concentration needed to bring the measured effect to its halfway point. Turning to B1, the EC50 was ~59.3 nM in test [1], ~250 nM in test [2], 7.7 nM in test [3] and 5.83 nM in test [4].

B2: B7-H4×CD3 bispecific antibody PR003899 (bispecific antibody)
light: QAVVTQEPSLTVSPGGTVTLTCRSSTGAVTTSNYANWVQQKPGQAPRGLIGGTNKRAPWTPARFSGSLLGDKAALTLLGAQPEDEAEYFCALWYSNLWVFGGGTKLTVLGQPKAAPSVTLFPPSSEELQANKATLVCLISDFYPGAVTVAWKADSSPVKAGVETTTPSKQSNNKYAASSYLSLTPEQWKSHRSYSCQVTHEGSTVEKTVAPTECS
heavy: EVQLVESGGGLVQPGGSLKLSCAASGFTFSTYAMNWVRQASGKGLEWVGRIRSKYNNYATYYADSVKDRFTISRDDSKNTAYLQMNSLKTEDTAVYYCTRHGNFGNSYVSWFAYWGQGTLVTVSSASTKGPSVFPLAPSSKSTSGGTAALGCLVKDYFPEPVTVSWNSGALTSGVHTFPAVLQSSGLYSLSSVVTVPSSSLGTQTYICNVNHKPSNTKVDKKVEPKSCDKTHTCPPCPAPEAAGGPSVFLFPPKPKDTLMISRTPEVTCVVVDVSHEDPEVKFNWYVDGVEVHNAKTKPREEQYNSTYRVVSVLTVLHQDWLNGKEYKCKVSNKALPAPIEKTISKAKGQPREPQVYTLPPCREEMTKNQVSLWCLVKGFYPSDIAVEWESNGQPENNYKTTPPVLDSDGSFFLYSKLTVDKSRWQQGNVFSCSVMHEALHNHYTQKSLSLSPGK
chain: EIVMTQSPASLSVSPGERATLSCRASQSVSSNLAWYQQKPGQAPRLLIYGASTRATGIPARVSGGGSGTEFTLTISSLQSEDFAVYYCQQYKNWPFTFGPGTKLEIKGGGGSGGGGSGGGGSGGGGSQVQLVQSGAEVKKPGSSMRVSCKASEDTFSSYAISWVRQAPGQGLEWMGGTAPIFGTTNYAQKFQGRVTITADKSTSTAYMELSSLRSEDTAVYYCARGGPYFDYWGQGTLVTVSSASEPKSSDKTHTCPPCPAPEAAGGPSVFLFPPKPKDTLMISRTPEVTCVVVDVSHEDPEVKFNWYVDGVEVHNAKTKPREEQYNSTYRVVSVLTVLHQDWLNGKEYKCKVSNKALPAPIEKTISKAKGQPREPQVCTLPPSREEMTKNQVSLSCAVKGFYPSDIAVEWESNGQPENNYKTTPPVLDSDGSFFLVSKLTVDKSRWQQGNVFSCSVMHEALHNHYTQKSLSLSPGK
Turning to B2, the EC50 is ~201 nM in test [1], ~62.5 nM in test [2], 6.06 nM in test [3] and 4.96 nM in test [4].

B3: Urelumab (antibody, V domains shown)
VH: QVQLQQWGAGLLKPSETLSLTCAVYGGSFSGYYWSWIRQSPEKGLEWIGEINHGGYVTYNPSLESRVTISVDTSKNQFSLKLSSVTAADTAVYYCARDYGPGNYDWYFDLWGRGTLVTVSS
VL: EIVLTQSPATLSLSPGERATLSCRASQSVSSYLAWYQQKPGQAPRLLIYDASNRATGIPARFSGSGSGTDFTLTISSLEPEDFAVYYCQQRSNWPPALTFGGGTKVEIK
In the case of B3, the concentration giving a half-maximal response (EC50) in test [5] was found to be 1.63 nM.
